Data: PMC6972895

Target: Chaperonin-containing TCP-1 (CCT) oligomeric complex (human (endogenous in T47D)) (UniProt P17987)
Experiment: native gel or EMSA; native PAGE of T47D CCT2-FLAG cell lysates; blotted for FLAG, CCT2 and CCT3; oligomeric complex against free monomer

B1: CCT2-FLAG (FLAG-tagged CCT2, FLAG tag on the C-terminal of CCT2) (natural protein)
chain: MASLSLAPVNIFKAGADEERAETARLTSFIGAIAIGDLVKSTLGPKGMDKILLSSGRDASLMVTNDGATILKNIGVDNPAAKVLVDMSRVQDDEVGDGTTSVTVLAAELLREAESLIAKKIHPQTIIAGWREATKAAREALLSSAVDHGSDEVKFRQDLMNIAGTTLSSKLLTHHKDHFTKLAVEAVLRLKGSGNLEAIHIIKKLGGSLADSYLDEGFLLDKKIGVNQPKRIENAKILIANTGMDTDKIKIFGSRVRVDSTAKVAEIEHAEKEKMKEKVERILKHGINCFINRQLIYNYPEQLFGAAGVMAIEHADFAGVERLALVTGGEIASTFDHPELVKLGSCKLIEEVMIGEDKLIHFSGVALGEACTIVLRGATQQILDEAERSLHDALCVLAQTVKDSRTVYGGGCSEMLMAHAVTQLANRTPGKEAVAMESYAKALRMLPTIIADNAGYDSADLVAQLRAAHSEGNTTAGLDMREGTIGDMAILGITESFQVKRQVLLSAAEAAEVILRVDNIIKAAPRKRVPDHHPC
percent of the total FLAG signal as free monomer: 24%
